Experiment: soluble on expression in E. coli; label from the status in PepcDB or PDB records

Sequence | soluble on expression in E. coli
MIPKNIHLIFLRKDEPFPELFEKCKQEIQVNHPDWNIRLYNKDDAQDILNQDLPEYIEAYNAFYHNVQKADFLRLALVYLYGGFYMDLDMLSLKPLDELRKYNLVLGEEKIVCQAEQEALNLRYRLRIANYMFGGIPKHPFLHRIMDEMAERATIILKSQQEILDITGPGLLTDTYWDNYGMYTDITLLRNTDKRCRQPYHNEISCHFGDYAAHLHAGTWRTGILEHHHHHH | soluble
GQDRSEATLIKRFKGEGVRYKAKLIGIDEVSAARGDKLCQDSMMKLKGVVAGARSKGEHKQKIFLTISFGGIKIFDEKTGALQHHHAVHEISYIAKDITDHRAFGYVCGKEGNHRFVAIKTAQAAEPVILDLRDLFQLIYELKQREELEKKA | soluble
MAHHHHHHMHLKECPPASSVGWLRPSLTIYMFGSKSLALSSAVFVLDCFTMGRKQRLLSAVVNVPLTLRLMLYFSASYKGEEPRLPPSTCVLGSSQGNNFLLLPGAFAESGCTTFFPGREGLMSELQDELWLQLPSRLLILARLDLANFLFAVVGRLPNSGINLFQQRPPSSLAVLPKRCMGMTLVALTTL | not soluble
MHVAMALADIDRVGGVVIIDPVVHPLTPKHPPNQAERGQIRADRCSTAVFAWLFHEWNATGRSALMRGLTCFAGNTNAQPKHPRRAFRDRLGSTGPRPPRLTVASTPSRQPHHRRILIVTKAKSGSVAPELDTPTDLPPQSVEKISTALNGLLADSFALYLKTKNFHWHISGRHFRDYHLLLDEQSAQILATTDDLAERVRKVGGTTLRSIGHISKLQSIQDNNDDYVPPREMLRELMNDNKKVAAAMRKAHEIVDECKDAASAGLLENFIDETEKRTWFLFEATRQEGANEA | not soluble
MGSDKIHHHHHHMKTTLAERLKTARTAQGLSQKALGDMIGVSQAAIQKIEVGKASQTTKIVELSNALHIRPEWLANGGGPMHSDRVVRSLQESSIPPTSKWGTVSAWDNTTKLSEDEVEVPFLKDIEFACGDGRIQSEDYNGFKLRFSKATLRKVGANTDGSGVLCFPAAGDSMEPIIPDGTTVAVDTNNKRIIDGKLYAIAQEGSGNDKLKRIKQLYRKPGGLLVIHSFNRDADEEAYESEVEIIGRVFWYSVLL | not soluble
MGSDKIHHHHHHMKVCVGIIGLGRIGHRFGISPQGDPLSHSEGYAQIPNVTVVLGVDPDPEACKNFLQRFSQAQVYSSLKDVPDGLHLEVVSVCSPTHLHAQGVIAALAWRPRVILCEKPLAVNVAEAEIMLAACSAQGCILITNYSRRWTPMLQALKNLTNQDDGLGTPIGACLRYNGGLLHNGTHWIDMLLALFGSVSCTYRLEKLSVAQDDAAESIALSWNSGLTAYLIAVRGTGCSIGEGELWGTGGMLRYSAGGGQVTWQTAQPSQWSGFQELDQAKIICEAGLKGHILGAVTEAVQLAKIGGQPTCSGADGVLALQVVEMARNNKFLIK | not soluble
MSGALKENSGKPSEVEYTHFKDLQALEMERGRLYETIVVTWDDSMVGNAAPIGVLCTGDDTVTLYLYQGTRTVENVLNNGRFTVNVTLDPLIFTDSTLGDLEEDMFSHYRDFLHLRGADAFFTAEVVSVKKLVKRDRFGESELHVVKARAGDVMRAESFRMALNRGIYAVIESLIAYTRAEFSDPLVLRERIAEMNRVARKVGGPREKEAMRRIIQALESKIS | not soluble
MLKGILYIIGIYQRYLSPLKGPTCRFYPSCSRYAHESLTRYGLVKGLWLTTIRILKCHPFHPGGVDPVKLEHHHHHH | not soluble
MGSDKIHHHHHHVSRSVSIYVCQSCGAQTRQFFGRCNNCGEWNSIIEEKINQKSDKSIYTKINSPKEKSPYRSELISQTKNQLIERISSGYKELDRVLGGGLVPGSLVLIGGDPGIGKSTLILQSATEMAHHKSVLYVAAEESAQQVKLRWNRIEDAESNLHLLAETDLEMVIKELDHLKPEVAVIDSIQALHDQSLSSSPGSVAQVRECSAALQQIAKRQNISLLIIGHVTKDGMLAGPKVLEHLVDAVLTFEGDRFASHRLLRGVKNRFGATSELGVFEMQADGLSEVPNPSELFLSKTSAPGISTIVTCEGTRPLAIDIQALLNPTSYASPRRTTTGIEINRLHQILAVLEKNMNLSLSRYDCYLAVAGGLEVEEPGADLGIAAAIVSSLKDIELEEGVVFIGEIGLAGQLRLVRQMQQRINEVIRLGYKTLIIPDGIDTSEFETNQKLKILKASNINQALIYALDNN | not soluble
MANFESSVKVIPYSQERVYAKLSDLSNLESVKGRLPEDKIQDLSFDSDTLSFSVSPIGQLTLQIVEREPCKCIKLATTNSPLPFNMWIQLVSTAEEECKLKVTISMDINPFMKAMVQKPLQDGLEKMVEMLSMINYLEHHHHHH | soluble
MLSRHINYFLAVAEHGSFTRAASALHVSQPALSQQIRQLEESLGVPLFDRSGRTIRLTDAGEVWRQYASRALQELGAGKRAIHDVADLTRGSLRIAVTPTFTSYFIGPLMADFYARYPSITLQLQEMSQEKIEDMLCRDELDVGIAFAPVHSPELEAIPLLTESLALVVAQHHPLAVHEQVALSRLHDEKLVLLSAEFATREQIDHYCEKAGLHPQVVIEANSISAVLELIRRTSLSTLLPAAIATQHDGLKAISLAPPLLERTAVLLRRKNSWQTAAAKAFLHMALDKCAVVGGNESR | not soluble
KEQILSSEQLARKMMLELGDKKQEHLVAIYMDTQNRIIEQRTIFIGTVRRSVAEPREILHYACKNMATSLIIIHNHPSGSPKPSESDLSFTKKIKRSCDHLGIVCLDHIIVGKNKYYSFREEADI | not soluble
MLIISNAVHLPDHEIELNAIRAQGAGGQNVNKVSSAVHLRFDIQASSLPPFYKERLLALNDQRISGDGVVVIKAQQYRTQEQNREDALERLAELIRSVAKVQKARRPTKPTRGSQKRRLDGKAKRGAVKAGRGKVDFLEHHHHHH | not soluble
GMSDIKKLGSSWIINWFFGFNQIPTNEDSSIYMKSVLTCAKADGVISPEEKDWALGFCASWGVADWVIEDLKTYEADEALEEVIARSPQVSMAQRDILLSAIWVSAADGELHEKEKAKIRKMATILGIKEEIVDQLEQLYYYEAALRQKRLNLLYPQKSPY | soluble
MTYPYRTTMALNTYQYRETTMIDPKKIEQIARQVHESMPKGIREFGEDVEKKIRQTLQAQLTRLDLVSREEFDVQTQVLLRTREKLALLEQRISELENRSTEIKKQPDPETLPPTLLEHHHHHH | not soluble
MSEKEIWEKVLEIAQEKLSAVSYSTFLKDTELYTIKDGEAIVLSSIPFNANWLNQQYAEIIQAILFDVVGYEVKPHFITTEELANYSNNETATPKETTKPSTETTEDNHVLGREQFNAHNTFDTFVIGPGNRFPHAASLAVAEAPAKAYNPLFIYGGVGLGKTHLMHAIGHHVLDNNPDAKVIYTSSEKFTNEFIKSIRDNEGEAFRERYRNIDVLLIDDIQFIQNKVQTQEEFFYTFNELHQNNKQIVISSDRPPKEIAQLEDRLRSRFEWGLIVDITPPDYETRMAILQKKIEEEKLDIPPEALNYIANQIQSNIRELEGALTRLLAYSQLLGKPITTELTAEALKDIIQAPKSKKITIQDIQKIVGQYYNVRIEDFSAKKRTKSIAYPRQIAMYLSRELTDFSLPKIGEEFGGRDHTTVIHAHEKISKDLKEDPIFKQEVENLEKEIRNVLEHHHHHH | soluble
MAKSSERFESLRRDIDALARRLDVPSVLIMRSLPRHMRVEASAGRLEDTYPIGAEGRKSVHEDGAKPLYCERVVDRDAPLHVRDSRQETEWAGNEDEVEFGLSNYLGYPVHAPDGTPYGTVCVLDSRPRDYSAEERALLEELRRKVEALLAETVS | not soluble
MSLIQAIKAKIIVTPGHAPIKDSAVIVKNNIIEKIIPSTELKNNYYQIIDLKNSVVLPGFINSHIHLELHWVQKLLEPFKSFPSWLNQIIKLKKNFNNSKIPYWVNKSLNECINSGVTTIGEISSYDGLDYKPILDKKIRAVYFYELTNSTLKNIENKFFQSLIRNKTNPLINFRIFPHSIYSLDTKSLKRILAFAKKHNIKLGMHLSESIDEVKYSKRKRNNFEKEVFPKTSYKPTIETKPTTPLEYLDTLNINRQHITLIHMNNLSQNDFKILTKKEYPVIICPRSNLYLNQKLPNIKFFMNYMKTGLGTDGLSSNLSINFLDEINFLYLNAKKIINNPEEKILSIATIGGAKALGIDNEVGTIEKGKKADIIAFDLLNKNPYLSIIHSKKRNLKMSMINGKIIKLREGHHHHHH | soluble
MAHHHHHHMTTTASPQTGSSPTVPTPVAPPSIDEALSYWIGLSRLIHRVCVTSDSTPSADEGEPSTFTRYALHCVLLCCGIKQHRVRQTADHMLAQLLSAAYTTAAALTGPVVLLDSESPASTPFRSPVRQLPVPLPVLVADWLKQSSADDQKASQHNRYCLRVPAVTWTRSIIKWLGSELRGQMISLRPLSRWNMVCAQQSGRMPVVIFVGGASGAGKSTLASLVASQLRVPNVLSTDTVRQVLRARLCGHEAQFPALFVSTYEAHKVTADDSHASADDGSAVPHAQSADENAIVQGYEAQCELVLRVLDGMLARLLARRESIVVEGVHLLPRYLAAKRAELLVSRVACVPVLVRIPKADSHLERLCIRARGMSMRAQNNKYIASFKAIRAIQAHLVDSVEAASLPVLVLSNTNMDKSFTALHHTLLETMEYAAVHGWPADAAAAADVPLTGLVFRAVKDRLVAVVRQRRWRRSATNDNISTSSGTGASAPGDEEKGGVATGPFSALVLAPHARPPVHSPAGSSNGAAPRARSAELLGVVQRCLLEQGLRYHSRTSNAQVDAATVYGSSGVLGARDASSRFHAHVVIRRSFTIAAKSHISMTASSHLPLDNHNEEFDELEIPSLIGS | not soluble
GPGSMLASTPGSNFGGAVASSNNNGGQQPQRRMHPIRPLTIKQMLEAQSVGGGVLVVDGREVTQATVVGRVVGYENANMASGGGAITAKHFGYRITDNTGMLVVRQWIDADRMQEPLAINTHVRASGTVNVWQQTPIVTGTVVSMADSNEMNYHMLDAILTHFRLTQGNKRAPSSGVSIQNTASAVGMHNMLPGGDNKVLLTDLLVSFIKQHGSSGAGMSMDELTTSAQRYGFTHGDVRTAMRTLAAEGKVYQTHDNRFNI | soluble
MGSDKIHHHHHHMDVQVYFSKVEDPRVVGRCKHKLSDILVIALASYLCGGEDYESMHELCLERGASLRPPVELPNGCPSVDTFERVLQRIEPQSLYACLQVYGKELISDLEGKHIAIDGKRLKGSKKKTGSTHILSAWVDEVSLSLAQETVAEKRNELQAIPEVLDSLDLSGAVISINAMGTQTNIAEQIIQSEADYILSLKSNQKHLYEDVQDYFTGQYRCHRYETLEKDHGRIEKRTYTTLLASEVFEEGEYSQWQGLRSLIQVEREISSLEGETRIDRQYYISSLPPEDCQLIGQYIRGHWGIENRLHWHLDVTFREDTCRARKDYSATNLNTLRKFALAIVSGHKDKLSLRKRLFKAALNIDYLKKLLKI | not soluble
MLINEYRPGAGIGWHRDKPHFEDVAGISLLAPCSFRLRRKSGDRWERRTIVVEPRSAYLMTGPSRTEWEHSIPPLAEHRYSITLRTLRSQNPLEHHHHHH | not soluble
MLDVHPSGFYAWLQQPHSQRHQADLRLTGQIKQFWLESGCVYGYRKIHLDLRDSGQQCGVNRVWRLMKRVGIKAQVGYRSPRARKGEASIVSPNRLQRQFNPDAPDERWVTDITYIRTHEGWLYLAVVVDLFSRKIIGWSMQSRMTKDIVLNALLMAVWRRNPEKQVLVHSDQGSQYTSHEWQSFLKSHGLEG | not soluble
MGSDKIHHHHHHMTNKVVNNDKISSVGIIGCGWLGSALAYQLKNQDIAVLATRSNIDNIEQLKSQGIEAEVLSLPAEQAQLNTHPIFKQQCLVIAITPQFRQGRVDYADKVQQLVESAKVGNCVEQIILLSSSAIYNGLSGDVEENSILDMSADKVSVLNQAEQAVLSFNHPGRNESRLNALNAEVGNKKAYVLRLSGLVGPKRHPGKFLLNGHMLKSPQAIVNLIHQQDAVGLIQTLLQSANCGGIFNGVSSTKVTKKQYYQAAASALQLPTPTFEEIELSEDNAPKVVSGKKTQAELAYEFVYDDLLAWLELAV | not soluble
